According to PMC3527528:

Target: Ssl1 (S. sviceus laccase 1), small two-domain laccase from Streptomyces sviceus, without the twin-arginine signal peptide (Streptomyces sviceus)
Test: SEC-MALS; Superdex 200 10/300 GL, 0.5 mL/min, 50 mM potassium phosphate pH 7.5; 100 µL of Ssl1 at 7.5 mg/mL injected; multi-angle static light scattering with refractometer

Ssl1 (S. sviceus laccase 1), small two-domain laccase from Streptomyces sviceus, without the twin-arginine signal peptide (enzyme)
stoichiometry N: 3
